# Data reported in the RNAGym collection of RNA variant scans (doi:10.1093/molbev/msab373).
# B1: Azoarcus group I ribozyme (parent)
# chain: GUGCCUUGCGCCGGGAAACCACGCAAGGGAUGGUGUCAAAUUCGGCGAAACCUAAGCGCCCGCCCGGGCGUAUGGCAACGCCGAGCCAAGCUUCGGCGCCUGCGCCGAUGAAGGUGUAGAGACUAGACGGCACCCACCUAAGGCAAACGCUAUGGUGAAGGCAUAGUCCAGGGAGUGGCGAAAGUCACACAAACCGG
# Variants of: B1
# Assay: reverse-splicing fitness (ratio to wild type); higher = more active; in vitro selection; Mg2+ level not given
# Procedure, shortened: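 An in vitro group I ribozyme library with randomized positions was T7-transcribed and gel-purified. In triplicate, 10 pmol RNA in EPPS pH 7.5 was reacted with 50 pmoles of a 30-nt RNA substrate for 1 h at 37 °C across several added MgCl2 levels (1–48 mM), then stopped with EDTA. Products were reverse transcribed from a substrate-complementary primer, PCR-amplified and sequenced (HiSeq 4000). Fitness is a variant's read proportion after selection over that before, normalised to wild type.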
row,Variant,reverse-splicing fitness
1,GUGCCUUGCGCCGGGAAACCACGCAAGGGAUGGUGUCAAAUUCGGCGAAACCUAAGCGCCCGCCCGGGCGUAUGGCAACGCGGAGCCAAGCUUCGGCGCCUGCGCCGAUGGAGGUGUAGGGACUAGACGGCACCCACCUAAGGCAAACGCUAUGGUGAAGGCAUAGUCCAGGGAGAGGCGAAAGUCACACAAACCGG,0.0172
2,GUGCCUUGCGCCGGGAAACCACGCAAGGGAUGGUGUCAAAUUCGGCGAAACCUAAGCGCCCGCCCGGGCGUAUGGCAACGCGGAGCCAAGCUUCGGCGCCUGCGCCGAUGGAGGUGUAGGGACUAGACGGCACCCACCUAAGGCAAACGCUAUGGUGAAGGCAUAGUCCAGGGAGCGGCGAAAGUCACACAAACCGG,0.0217
3,GUGCCUUGCGCCGGGAAACCACGCAAGGGAUGGUGUCAAAUUCGGCGAAACCUAAGCGCCCGCCCGGGCGUAUGGCAACGCGGAGCCAAGCUUCGGCGCCUGCGCCGAUGGAGGUGUAGGGACUAGACGGCACCCACCUAAGGCAAACGCUAUGGUGAAGGCAUAGUCCAGGGAGGGGCGAAAGUCACACAAACCGG,0.00869
4,GUGCCUUGCGCCGGGAAACCACGCAAGGGAUGGUGUCAAAUUCGGCGAAACCUAAGCGCCCGCCCGGGCGUAUGGCAACGCGGAGCCAAGCUUCGGCGCCUGCGCCGAUGGAGGUGUAGUGACUAGACGGCACCCACCUAAGGCAAACGCUAUGGUGAAGGCAUAGUCCAGGGAGUGGCGAAAGUCACACAAACCGG,0.0726
5,GUGCCUUGCGCCGGGAAACCACGCAAGGGAUGGUGUCAAAUUCGGCGAAACCUAAGCGCCCGCCCGGGCGUAUGGCAACGCGGAGCCAAGCUUCGGCGCCUGCGCCGAUGGAGGUGUAGUGACUAGACGGCACCCACCUAAGGCCAACGCUAUGGUGAAGGCAUAGUCCAGGGAGUGGCGAAAGUCACACAAACCGG,0.0668
6,GUGCCUUGCGCCGGGAAACCACGCAAGGGAUGGUGUCAAAUUCGGCGAAACCUAAGCGCCCGCCCGGGCGUAUGGCAACGCGGAGCCAAGCUUCGGCGCCUGCGCCGAUGGAGGUGUAGUGACUAGACGGCACCCACCUAAGGCCAACGAUAUGGUGAAGGCAUAGUCCAGGGAGUGGCGAAAGUCACACAAACCGG,0.00572
7,GUGCCUUGCGCCGGGAAACCACGCAAGGGAUGGUGUCAAAUUCGGCGAAACCUAAGCGCCCGCCCGGGCGUAUGGCAACGCGGAGCCAAGCUUCGGCGCCUGCGCCGAUGGAGGUGUAGUGACUAGACGGCACCCACCUAAGGCCAACGAUAUGGUGAAGGCAUAGUCAAGGGAGUGGCGAAAGUCACACAAACCGG,0.00228
8,GUGCCUUGCGCCGGGAAACCACGCAAGGGAUGGUGUCAAAUUCGGCGAAACCUAAGCGCCCGCCCGGGCGUAUGGCAACGCGGAGCCAAGCUUCGGCGCCUGCGCCGAUGGAGGUGUAGUGACUAGACGGCACCCACCUAAGGCCAACGAUAUGGUGAAGGCAUAGUCAAGGGAGAGGCGAAAGUCACACAAACCGG,0.00209
9,GUGCCUUGCGCCGGGAAACCACGCAAGGGAUGGUGUCAAAUUCGGCGAAACCUAAGCGCCCGCCCGGGCGUAUGGCAACGCGGAGCCAAGCUUCGGCGCCUGCGCCGAUGGAGGUGUAGUGACUAGACGGCACCCACCUAAGGCCAACGAUAUGGUGAAGGCAUAGUCAAGGGAGCGGCGAAAGUCACACAAACCGG,0.00213
10,GUGCCUUGCGCCGGGAAACCACGCAAGGGAUGGUGUCAAAUUCGGCGAAACCUAAGCGCCCGCCCGGGCGUAUGGCAACGCGGAGCCAAGCUUCGGCGCCUGCGCCGAUGGAGGUGUAGUGACUAGACGGCACCCACCUAAGGCCAACGAUAUGGUGAAGGCAUAGUCAAGGGAGGGGCGAAAGUCACACAAACCGG,0.00204
11,GUGCCUUGCGCCGGGAAACCACGCAAGGGAUGGUGUCAAAUUCGGCGAAACCUAAGCGCCCGCCCGGGCGUAUGGCAACGCGGAGCCAAGCUUCGGCGCCUGCGCCGAUGGAGGUGUAGUGACUAGACGGCACCCACCUAAGGCCAACGAUAUGGUGAAGGCAUAGUCGAGGGAGUGGCGAAAGUCACACAAACCGG,0.00251
12,GUGCCUUGCGCCGGGAAACCACGCAAGGGAUGGUGUCAAAUUCGGCGAAACCUAAGCGCCCGCCCGGGCGUAUGGCAACGCGGAGCCAAGCUUCGGCGCCUGCGCCGAUGGAGGUGUAGUGACUAGACGGCACCCACCUAAGGCCAACGAUAUGGUGAAGGCAUAGUCGAGGGAGAGGCGAAAGUCACACAAACCGG,0.00277
13,GUGCCUUGCGCCGGGAAACCACGCAAGGGAUGGUGUCAAAUUCGGCGAAACCUAAGCGCCCGCCCGGGCGUAUGGCAACGCGGAGCCAAGCUUCGGCGCCUGCGCCGAUGGAGGUGUAGUGACUAGACGGCACCCACCUAAGGCCAACGAUAUGGUGAAGGCAUAGUCGAGGGAGCGGCGAAAGUCACACAAACCGG,0.00215
14,GUGCCUUGCGCCGGGAAACCACGCAAGGGAUGGUGUCAAAUUCGGCGAAACCUAAGCGCCCGCCCGGGCGUAUGGCAACGCGGAGCCAAGCUUCGGCGCCUGCGCCGAUGGAGGUGUAGUGACUAGACGGCACCCACCUAAGGCCAACGAUAUGGUGAAGGCAUAGUCGAGGGAGGGGCGAAAGUCACACAAACCGG,0.0019
15,GUGCCUUGCGCCGGGAAACCACGCAAGGGAUGGUGUCAAAUUCGGCGAAACCUAAGCGCCCGCCCGGGCGUAUGGCAACGCGGAGCCAAGCUUCGGCGCCUGCGCCGAUGGAGGUGUAGUGACUAGACGGCACCCACCUAAGGCCAACGAUAUGGUGAAGGCAUAGUCUAGGGAGUGGCGAAAGUCACACAAACCGG,0.00246
